According to article PMC9242541, “Importance of Rare DPYD Genetic Polymorphisms for 5-Fluorouracil Therapy in the Japanese Population” (Frontiers in Pharmacology, 2022):
Where a chain is given by its changes, count along the chain named. Numbers in names are those of the source.

B1: wild-type dihydropyrimidine dehydrogenase (DPD) (enzyme, human, UniProt Q12882 4-1025, looked up)
chain: VLSKDSADIESILALNPRTQTHATLCSTSAKKLDKKHWKRNPDKNCFNCEKLENNFDDIKHTTLGERGALREAMRCLKCADAPCQKSCPTNLDIKSFITSIANKNYYGAAKMIFSDNPLGLTCGMVCPTSDLCVGGCNLYATEEGPINIGGLQQFATEVFKAMSIPQIRNPSLPPPEKMSEAYSAKIALFGAGPASISCASFLARLGYSDITIFEKQEYVGGLSTSEIPQFRLPYDVVNFEIELMKDLGVKIICGKSLSVNEMTLSTLKEKGYKAAFIGIGLPEPNKDAIFQGLTQDQGFYTSKDFLPLVAKGSKAGMCACHSPLPSIRGVVIVLGAGDTAFDCATSALRCGARRVFIVFRKGFVNIRAVPEEMELAKEEKCEFLPFLSPRKVIVKGGRIVAMQFVRTEQDETGKWNEDEDQMVHLKADVVISAFGSVLSDPKVKEALSPIKFNRWGLPEVDPETMQTSEAWVFAGGDVVGLANTTVESVNDGKQASWYIHKYVQSQYGASVSAKPELPLFYTPIDLVDISVEMAGLKFINPFGLASATPATSTSMIRRAFEAGWGFALTKTFSLDKDIVTNVSPRIIRGTTSGPMYGPGQSSFLNIELISEKTAAYWCQSVTELKADFPDNIVIASIMCSYNKNDWTELAKKSEDSGADALELNLSCPHGMGERGMGLACGQDPELVRNICRWVRQAVQIPFFAKLTPNVTDIVSIARAAKEGGANGVTATNTVSGLMGLKSDGTPWPAVGIAKRTTYGGVSGTAIRPIALRAVTSIARALPGFPILATGGIDSAESGLQFLHSGASVLQVCSAIQNQDFTVIEDYCTGLKALLYLKSIEELQDWDGQSPATVSHQKGKPVPRIAELMDKKLPSFGPYLEQRKKIIAENKIRLKEQNVAFSPLKRNCFIPKRPIPTIKDVIGKALQYLGTFGELSNVEQVVAMIDEEMCINCGKCYMTCNDSGYQAIQFDPETHLPTITDTCTGCTLCLSVCPIVDCIKMVSRTTPYEPKRGVPLSVNPVC
notes: dihydropyrimidine dehydrogenase (DPD), human, wild-type DPYD cDNA; the open-reading frame encodes 1,025 amino acid residues; no tag is stated; also called wild-type DPD; source: 293FT cells, transfected (pcDNA3.4), soluble fraction
B2: DPD variant F524L (enzyme, human, UniProt Q12882 4-1025, looked up)
chain: B1 chain with F521L
notes: dihydropyrimidine dehydrogenase (DPD), human, DPYD cDNA with a variant found in Japanese individuals; made by site-directed mutagenesis of the wild-type construct; also called 1572T > G; source: 293FT cells, transfected (pcDNA3.4), soluble fraction
B3: DPD variant I560V (enzyme, human, UniProt Q12882 4-1025, looked up)
chain: B1 chain with I557V
notes: dihydropyrimidine dehydrogenase (DPD), human, DPYD cDNA with a variant found in Japanese individuals; made by site-directed mutagenesis of the wild-type construct; also called 1678A > G; source: 293FT cells, transfected (pcDNA3.4), soluble fraction
B4: DPD variant C29R (enzyme, human, UniProt Q12882 4-1025, looked up)
chain: B1 chain with C26R
notes: dihydropyrimidine dehydrogenase (DPD), human, DPYD cDNA with a variant found in Japanese individuals; made by site-directed mutagenesis of the wild-type construct; also called 85T > C (*9A, *9B); source: 293FT cells, transfected (pcDNA3.4), soluble fraction
B5: DPD variant G748D (enzyme, human, UniProt Q12882 4-1025, looked up)
chain: B1 chain with G745D
notes: dihydropyrimidine dehydrogenase (DPD), human, DPYD cDNA with a variant found in Japanese individuals; made by site-directed mutagenesis of the wild-type construct; also called 2243G > A; source: 293FT cells, transfected (pcDNA3.4), soluble fraction
B6: DPD risk variant D949V (enzyme, human, UniProt Q12882 4-1025, looked up)
chain: B1 chain with D946V
notes: dihydropyrimidine dehydrogenase (DPD), human, DPYD cDNA with a risk variant reported in Caucasians; made by site-directed mutagenesis of the wild-type construct; also called c.2846A>T; 2846A > T; source: 293FT cells, transfected (pcDNA3.4), soluble fraction
B7: DPD variant I843T (enzyme, human, UniProt Q12882 4-1025, looked up)
chain: B1 chain with I840T
notes: dihydropyrimidine dehydrogenase (DPD), human, DPYD cDNA with a variant found in Japanese individuals; made by site-directed mutagenesis of the wild-type construct; also called 2528T > C; source: 293FT cells, transfected (pcDNA3.4), soluble fraction
B8: DPD variant V826M (enzyme, human, UniProt Q12882 4-1025, looked up)
chain: B1 chain with V823M
notes: dihydropyrimidine dehydrogenase (DPD), human, DPYD cDNA with a variant found in Japanese individuals; made by site-directed mutagenesis of the wild-type construct; also called 2476G > A; source: 293FT cells, transfected (pcDNA3.4), soluble fraction
B9: DPD variant H807R (enzyme, human, UniProt Q12882 4-1025, looked up)
chain: B1 chain with H804R
notes: dihydropyrimidine dehydrogenase (DPD), human, DPYD cDNA with a variant found in Japanese individuals; made by site-directed mutagenesis of the wild-type construct; source: 293FT cells, transfected (pcDNA3.4), soluble fraction
B10: DPD variant A380V (enzyme, human, UniProt Q12882 4-1025, looked up)
chain: B1 chain with A377V
notes: dihydropyrimidine dehydrogenase (DPD), human, DPYD cDNA with a variant found in Japanese individuals; made by site-directed mutagenesis of the wild-type construct; also called 1139C > T; source: 293FT cells, transfected (pcDNA3.4), soluble fraction
B11: DPD variant M166V (enzyme, human, UniProt Q12882 4-1025, looked up)
chain: B1 chain with M163V
notes: dihydropyrimidine dehydrogenase (DPD), human, DPYD cDNA with a variant found in Japanese individuals; made by site-directed mutagenesis of the wild-type construct; also called 496A > G; source: 293FT cells, transfected (pcDNA3.4), soluble fraction
B12: DPD variant V434L (enzyme, human, UniProt Q12882 4-1025, looked up)
chain: B1 chain with V431L
notes: dihydropyrimidine dehydrogenase (DPD), human, DPYD cDNA with a variant found in Japanese individuals; made by site-directed mutagenesis of the wild-type construct; also called 1300G > C; source: 293FT cells, transfected (pcDNA3.4), soluble fraction
B13: DPD variant M321I (enzyme, human, UniProt Q12882 4-1025, looked up)
chain: B1 chain with M318I
notes: dihydropyrimidine dehydrogenase (DPD), human, DPYD cDNA with a variant found in Japanese individuals; made by site-directed mutagenesis of the wild-type construct; also called 963G > A; source: 293FT cells, transfected (pcDNA3.4), soluble fraction
B14: DPD risk variant I560S (DPYD*13) (enzyme, human, UniProt Q12882 4-1025, looked up)
chain: B1 chain with I557S
notes: dihydropyrimidine dehydrogenase (DPD), human, DPYD cDNA with a risk variant reported in Caucasians; made by site-directed mutagenesis of the wild-type construct; also called c.1679T>G; 1679T > G (*13); source: 293FT cells, transfected (pcDNA3.4), soluble fraction
B15: DPD variant G366A (enzyme, human, UniProt Q12882 4-1025, looked up)
chain: B1 chain with G363A
notes: dihydropyrimidine dehydrogenase (DPD), human, DPYD cDNA with a variant found in Japanese individuals; made by site-directed mutagenesis of the wild-type construct; also called 1097G > C; source: 293FT cells, transfected (pcDNA3.4), soluble fraction
B16: DPD variant M77V (enzyme, human, UniProt Q12882 4-1025, looked up)
chain: B1 chain with M74V
notes: dihydropyrimidine dehydrogenase (DPD), human, DPYD cDNA with a variant found in Japanese individuals; made by site-directed mutagenesis of the wild-type construct; also called 229A > G; source: 293FT cells, transfected (pcDNA3.4), soluble fraction
B17: DPD variant Q604L (enzyme, human, UniProt Q12882 4-1025, looked up)
chain: B1 chain with Q601L
notes: dihydropyrimidine dehydrogenase (DPD), human, DPYD cDNA with a variant found in Japanese individuals; made by site-directed mutagenesis of the wild-type construct; also called 1811A > T; source: 293FT cells, transfected (pcDNA3.4), soluble fraction
B18: DPD variant N151D (enzyme, human, UniProt Q12882 4-1025, looked up)
chain: B1 chain with N148D
notes: dihydropyrimidine dehydrogenase (DPD), human, DPYD cDNA with a variant found in Japanese individuals; made by site-directed mutagenesis of the wild-type construct; also called 451A > G; source: 293FT cells, transfected (pcDNA3.4), soluble fraction
B19: DPD variant V335M (enzyme, human, UniProt Q12882 4-1025, looked up)
chain: B1 chain with V332M
notes: dihydropyrimidine dehydrogenase (DPD), human, DPYD cDNA with a variant found in Japanese individuals; made by site-directed mutagenesis of the wild-type construct; also called 1003G > A; source: 293FT cells, transfected (pcDNA3.4), soluble fraction
B20: DPD variant K384E (enzyme, human, UniProt Q12882 4-1025, looked up)
chain: B1 chain with K381E
notes: dihydropyrimidine dehydrogenase (DPD), human, DPYD cDNA with a variant found in Japanese individuals; made by site-directed mutagenesis of the wild-type construct; also called 1150A > G; source: 293FT cells, transfected (pcDNA3.4), soluble fraction
B21: DPD variant S939N (enzyme, human, UniProt Q12882 4-1025, looked up)
chain: B1 chain with S936N
notes: dihydropyrimidine dehydrogenase (DPD), human, DPYD cDNA with a variant found in Japanese individuals; made by site-directed mutagenesis of the wild-type construct; also called 2816G > A; source: 293FT cells, transfected (pcDNA3.4), soluble fraction

Molecular target: the molecule itself
Assay: native gel or EMSA; blue native PAGE (Tris-glycine buffer, 5%-20% polyacrylamide gels), 9 μg of the soluble fraction of transfected 293FT cells per lane, immunoblot with polyclonal anti-human DPD antibody; monomer to dimer

| Protein | stoichiometry N |
| --- | --- |
| B1 | 2 |
| B2 | 2 |
| B3 | 2 |
| B4 | 2 |
| B5 | 2 |
| B6 | 2 |
| B7 | 2 |
| B8 | 2 |
| B9 | 2 |
| B10 | 2 |
| B11 | 2 |
| B12 | 2 |
| B13 | 2 |
| B14 | 2 |
| B15 | 2 |
| B16 | 2 |
| B17 | 2 |
| B18 | 2 |
| B19 | 2 |
| B20 | 2 |
| B21 | 2 |
